Experimental data reported in patent publication US20050106145A1 (SIGMA TAU INDUSTRIE FARMACEUTICHE RIUNITE S P A, published 2005).

Tests used:
[1] = target: T1, human tenascin-C (human, UniProt P24821 23-2201, limits assumed); experiment: BIAcore
T1 construct: Extracellular matrix protein; also called SK-MEL-28 purified tenascin

[2] = target: T2, A1-4D fragment (human, UniProt P24821); experiment: Western blot
T2 construct: recombinant antigenic fragment; Lane B of the Western blots; also called A-D fragment
T2 sequence (antigen fragment, looked up): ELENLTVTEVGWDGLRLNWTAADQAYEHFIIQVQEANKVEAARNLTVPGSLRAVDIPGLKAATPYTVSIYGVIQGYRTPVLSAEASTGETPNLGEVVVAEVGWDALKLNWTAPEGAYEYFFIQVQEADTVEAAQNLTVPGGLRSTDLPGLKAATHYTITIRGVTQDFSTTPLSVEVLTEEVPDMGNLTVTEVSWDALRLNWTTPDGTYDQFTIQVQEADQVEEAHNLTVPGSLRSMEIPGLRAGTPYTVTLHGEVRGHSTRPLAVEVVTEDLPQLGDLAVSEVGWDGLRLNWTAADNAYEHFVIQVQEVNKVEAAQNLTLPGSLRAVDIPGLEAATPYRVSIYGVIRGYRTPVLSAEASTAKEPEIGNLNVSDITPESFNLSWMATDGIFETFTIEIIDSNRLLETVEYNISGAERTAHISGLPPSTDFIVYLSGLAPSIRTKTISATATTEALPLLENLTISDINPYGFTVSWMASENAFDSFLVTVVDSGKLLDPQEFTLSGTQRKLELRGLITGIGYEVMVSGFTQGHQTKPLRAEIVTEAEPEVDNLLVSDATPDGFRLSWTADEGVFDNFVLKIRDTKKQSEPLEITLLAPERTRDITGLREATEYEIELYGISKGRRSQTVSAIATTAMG

[3] = target: T1, human tenascin-C; experiment: BIAcore, comparison with BC4
[4] = target: T1, human tenascin-C; experiment: ELISA, optimal antigen concentration (FIG. 6 panel A)
[5] = target: T1, human tenascin-C; experiment: BIAcore; remark: listed apart in the source

T1 sequence (P24821 23-2201 limits assumed): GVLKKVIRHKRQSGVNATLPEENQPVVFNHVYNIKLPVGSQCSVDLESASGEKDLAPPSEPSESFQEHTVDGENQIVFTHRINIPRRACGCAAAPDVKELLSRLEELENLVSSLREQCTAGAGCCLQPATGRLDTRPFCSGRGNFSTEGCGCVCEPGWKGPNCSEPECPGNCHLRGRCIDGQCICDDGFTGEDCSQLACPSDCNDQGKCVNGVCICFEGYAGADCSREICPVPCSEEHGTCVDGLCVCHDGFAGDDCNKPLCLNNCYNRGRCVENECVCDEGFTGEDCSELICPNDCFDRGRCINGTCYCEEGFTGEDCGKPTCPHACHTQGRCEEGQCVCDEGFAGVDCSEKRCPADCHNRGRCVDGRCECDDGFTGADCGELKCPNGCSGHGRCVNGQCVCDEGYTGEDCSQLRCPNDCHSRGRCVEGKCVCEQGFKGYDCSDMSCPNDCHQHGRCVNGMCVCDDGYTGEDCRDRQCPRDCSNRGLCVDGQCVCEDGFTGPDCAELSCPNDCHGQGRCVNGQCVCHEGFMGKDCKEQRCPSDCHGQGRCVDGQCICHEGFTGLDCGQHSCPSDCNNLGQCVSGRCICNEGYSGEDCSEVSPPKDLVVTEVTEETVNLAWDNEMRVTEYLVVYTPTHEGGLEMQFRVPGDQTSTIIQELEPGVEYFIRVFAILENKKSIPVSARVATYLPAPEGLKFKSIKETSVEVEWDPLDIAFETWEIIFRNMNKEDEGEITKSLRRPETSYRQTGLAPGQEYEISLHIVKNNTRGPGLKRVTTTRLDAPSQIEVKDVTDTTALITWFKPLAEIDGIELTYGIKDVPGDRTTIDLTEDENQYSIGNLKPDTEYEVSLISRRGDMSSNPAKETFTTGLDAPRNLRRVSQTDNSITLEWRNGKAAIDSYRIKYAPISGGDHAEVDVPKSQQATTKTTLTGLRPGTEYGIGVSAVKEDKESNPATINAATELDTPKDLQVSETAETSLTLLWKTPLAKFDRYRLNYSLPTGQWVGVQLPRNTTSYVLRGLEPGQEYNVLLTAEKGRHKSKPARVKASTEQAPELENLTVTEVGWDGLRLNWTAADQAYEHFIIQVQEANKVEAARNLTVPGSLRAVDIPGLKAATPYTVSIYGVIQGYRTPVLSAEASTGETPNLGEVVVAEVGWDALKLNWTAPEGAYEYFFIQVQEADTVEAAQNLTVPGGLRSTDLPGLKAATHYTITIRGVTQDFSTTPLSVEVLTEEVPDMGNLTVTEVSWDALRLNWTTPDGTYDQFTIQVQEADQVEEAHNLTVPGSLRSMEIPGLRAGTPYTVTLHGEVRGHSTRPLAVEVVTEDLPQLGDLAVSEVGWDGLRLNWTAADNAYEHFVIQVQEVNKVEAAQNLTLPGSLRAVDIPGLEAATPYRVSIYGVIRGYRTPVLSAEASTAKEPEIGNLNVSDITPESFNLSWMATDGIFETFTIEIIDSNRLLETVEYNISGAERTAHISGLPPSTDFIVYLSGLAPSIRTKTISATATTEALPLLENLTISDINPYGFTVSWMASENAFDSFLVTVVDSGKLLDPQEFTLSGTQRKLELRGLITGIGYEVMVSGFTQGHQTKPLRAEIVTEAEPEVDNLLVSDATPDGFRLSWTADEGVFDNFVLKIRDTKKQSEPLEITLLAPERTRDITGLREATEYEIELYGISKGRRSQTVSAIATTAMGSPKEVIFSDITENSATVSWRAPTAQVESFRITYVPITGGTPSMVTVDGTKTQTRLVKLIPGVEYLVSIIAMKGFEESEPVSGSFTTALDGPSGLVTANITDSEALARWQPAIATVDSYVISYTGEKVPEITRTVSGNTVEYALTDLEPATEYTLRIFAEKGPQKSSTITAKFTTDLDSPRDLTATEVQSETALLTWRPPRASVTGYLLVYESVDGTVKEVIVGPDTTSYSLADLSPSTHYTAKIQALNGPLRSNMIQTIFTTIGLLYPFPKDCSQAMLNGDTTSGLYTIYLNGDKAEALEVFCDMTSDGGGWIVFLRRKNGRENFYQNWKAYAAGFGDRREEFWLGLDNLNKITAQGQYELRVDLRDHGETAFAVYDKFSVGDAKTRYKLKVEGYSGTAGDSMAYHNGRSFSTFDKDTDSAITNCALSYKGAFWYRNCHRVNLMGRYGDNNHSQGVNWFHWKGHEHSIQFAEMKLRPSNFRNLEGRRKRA

- Kd [1]: 1.4 nM
- binding result [2]: no binding
- fold affinity against BC4 [3]: ~3 fold
- fold less antibody to obtain 1.0 OD than BC4 [4]: ~100 fold
- fold less antibody to obtain 1.0 OD than the fully reactive peak 3 of BC4 [4]: ~20 fold
- koff [5]: 0.00041 s⁻¹
- kon [5]: 300000 M⁻¹ s⁻¹
B1: ST2146 anti-human tenascin monoclonal antibody (antibody, V domains shown)
VH: KVKLQQSGPELVKPGASVKVSCKASGYAFTSYNMYWVKQSHGKSLEWIGYIDPYNGVTSYNQKFKGKATLTVDKSSSTAYMHLNSLTSEDSAVYYCARGGGSIYYAMDYWGQGTTVTVSS
VL: DIVMTQAAPSVPVTPGESVSISCRSSKSLLHSNGNTYLYWFLQRPGQSPQLLIYRMSNLASGVPDRFSGSGSGTAFTLRISRVEAEDVGVYYCMQHLEYPLTFGAGTKLELKR
notes: Mouse immunoglobulin of IgG2b/k isotype from hybridoma cST2146; Heavy chain is heterogeneously O-glycosylated
